Results on 32 variants are retold here after the RNAGym collection of RNA variant scans (doi:10.7554/elife.80360).

B1: HDV Ribozyme (parent)
chain: GGCCGGCAUGGUCCCAGCCUCCUCGCUGGCGCCGGCUGGGCAACAUUCCGAGGGGACCGUCCCCUCGGUAAUGGCGAAUGGGACCCA

In the data set the parent is B1. In words: self-cleavage, relative activity (ratio to wild type); higher = more cleavage; co-transcriptional.
For GGCCGGCAUGGUUCCAGCCUCCUCGCUGGCGCCGGCUGGGCAACAUUCCGCGGGGACCGUCCCCUCGGUAAUGGCGAAUGGGACCCA, the self-cleavage was found to be 0.997.
With GGCCGGCAUGGUUCCAGCCUCCUCGCUGGCGCCGGCUGGGCAACAUUCCGGGGGGACCGUCCCCUCGGUAAUGGCGAAUGGGACCCA, the self-cleavage is 0.89.
Then GGCCGGCAUGGUGCCAGCCUCCUCGCUGGCGCCGGCGGGGCAACAUUCCGAGGGGACCGUCCCCUCGGUAAUGGCGAAUGGGACCCA, with 0; and GGCCGGCAUGGUUCCAGCCUCCUCGUUGGCGCCGGCUGGGCAACAUUCCGAGGGGACCGUCCCCUCGGUAAUGGCGAAUGGGACCCA, with 1.07.
As for GGCCGGCAUGGUUCCAGCCUCCUCGAUGGCGCCGGCUGGGCAACAUUCCGAGGGGACCGUCCCCUCGGUAAUGGCGAAUGGGACCCA, the self-cleavage is 1.23.
Then GGCCGGCAUGGUUCCAGCCUCCUCGGUGGCGCCGGCUGGGCAACAUUCCGAGGGGACCGUCCCCUCGGUAAUGGCGAAUGGGACCCA, with 0.831; and GGCCGGCAUGGUUUCAGCCUCCUCGCUGGCGCCGGCUGGGCAACAUUCCGAGGGGACCGUCCCCUCGGUAAUGGCGAAUGGGACCCA, with 0.308; and GGCCGGCAUGGUUCCAGCCUCCUCGCUGGCGCCGGCUGGGUAACAUUCCGAGGGGACCGUCCCCUCGGUAAUGGCGAAUGGGACCCA, with 0.323.
Then GGCCGGCAUGGUUCCAGCCUCCUCGCUGGCGCCGGCUGGGAAACAUUCCGAGGGGACCGUCCCCUCGGUAAUGGCGAAUGGGACCCA, with 0.522; and GGCCGGCAUGGUUCCAGCCUCCUCGCUGGCGCCGGCUGGGGAACAUUCCGAGGGGACCGUCCCCUCGGUAAUGGCGAAUGGGACCCA, with 0.739.
Then GGCCGGCAUGGUUCCAGCCUCCUCGCUGGCGCCGGCUGGGCAACAUUCCGAGGGGACCGUCCCCUCGGUAAUGGCGAAUGGGCCCCA, with 0.344; and GGCCGGCAUGGUGCCAGCCUCCUCGCUGGCGCCGGCUGGGCAACAUUCCGAGGGGACCGACCCCUCGGUAAUGGCGAAUGGGACCCA, with 0.237.
As for GGCCGGCAUGGUGCCAGCCUCCUCGCUGGCGCCGGCUGGGCAACAUUCCGAGGGGACCGCCCCCUCGGUAAUGGCGAAUGGGACCCA, the self-cleavage turned out to be 0.
Then GGCCGGCAUGGUUCCAGCGUCCUCGCUGGCGCCGGCUGGGCAACAUUCCGAGGGGACCGUCCCCUCGGUAAUGGCGAAUGGGACCCA, with 0.138.
Then GGCCGGCAUGGUGCCAGCCUCCUCGCUGGCGCCGGCUGGGCAACAUUCCGAGGGGACCGUCCCCUCGGUAAUGGCGAAUGAGACCCA, with 0.0426.
The result for GGCCGGCAUGGUGCCAGCCUCCUCGCUGGCGCCGGCUGGGCAACAUUCCGAGGGGACCGUCCCCUCGGUAAUGGCGAAUGCGACCCA reads 0.229.
Turning to GGCCGGCAUGGUGCCAGCCUCCUCGCUGGCGCCGGCUGGGCAACAUUCCGAGGGGACCGUCCCCUCGGUAAUGGCGAAUGUGACCCA, the self-cleavage worked out at 0.0475.
The result for GGCCGGCAUGGUUCCAGCCUCCUCGCUGGCGCCGGCUGGGCAACAUUCCGAGGGGACCGUCCCCUCGGUAAUGGCGACUGGGACCCA reads 0.119; that for GGCCGGCAUGGUUCCAGCCUCCUCGCUGGCGCCGGCUGGGCAACAUUCCGAGGGGACCGUCCCCUCGGUUAUGGCGAAUGGGACCCA, 0.342.
For GGCCGGCAUGGUUCCAGCCUCCUCGCUGGCGCCGGCUGGGCAACAUUCCGAGGGGACCGUCCCCUCGGUCAUGGCGAAUGGGACCCA, the self-cleavage was 0.453.
Turning to GGCCGGCAUGGUUCCAGCCUCCUCGCUGGCGCCGGUUGGGCAACAUUCCGAGGGGACCGUCCCCUCGGUAAUGGCGAAUGGGACCCA, the self-cleavage came out at 0.256.
Regarding GGCCGGCAUGGUUCCAGCCUCCUAGCUGGCGCCGGCUGGGCAACAUUCCGAGGGGACCGUCCCCUCGGUAAUGGCGAAUGGGACCCA, the self-cleavage came out at 0.381.
The result for GGCCGGCAUGGUUCCAGCCUCCUGGCUGGCGCCGGCUGGGCAACAUUCCGAGGGGACCGUCCCCUCGGUAAUGGCGAAUGGGACCCA reads 0.0615.
Then GGCCGGCAUGGUGCCAGCCUCCUCGCUGGCGCCGGCUGGGCAACAUUCCGAGGGGACCGUCCCCUCGGUAAUGUCGAAUGGGACCCA, with 0.0386; and GGCCGGCAUGGUGCCAGCCUCCUCGCUGGCGCCGGCUGGGCAACAUUCCGAGGGGACCGUCCCCUCGGUAAUGACGAAUGGGACCCA, with 0.0405; and GGCCGGCAUGGUUCCAGCCUCUUCGCUGGCGCCGGCUGGGCAACAUUCCGAGGGGACCGUCCCCUCGGUAAUGGCGAAUGGGACCCA, with 0.193.
The result for GGCCGGCAUGGUGCCAGCCUCCUCGCUGGCGCCGGCUGGGCAACAUUCCGAGGGGACCGUCCCCUCGGUAAUGGCGAAAGGGACCCA reads 0; that for GGCCGGCAUGGUGCCAGCCUCCUCGCUGGCGCCGGCUGGGCAACAUUCCGAGGGGACCGUCCCCUCGGUAAUGGCGAAGGGGACCCA, 0.0755; that for GGCCGGCAUGGUUCCAGACUCCUCGCUGGCGCCGGCUGGGCAACAUUCCGAGGGGACCGUCCCCUCGGUAAUGGCGAAUGGGACCCA, 0.0652.
For the variant GGCCGGCAUGGUGCCAGCCUCCUCGCUGGCGCCGGCUGGGCAACAUUCCGAGGGGACCGUCCCCGCGGUAAUGGCGAAUGGGACCCA, the self-cleavage amounted to 0.115.
Then GGCCGGCAUGGUUCCAGCCUGCUCGCUGGCGCCGGCUGGGCAACAUUCCGAGGGGACCGUCCCCUCGGUAAUGGCGAAUGGGACCCA, with 0.115.
The result for GGCCGGCAUGGUUCCAGCCUACUCGCUGGCGCCGGCUGGGCAACAUUCCGAGGGGACCGUCCCCUCGGUAAUGGCGAAUGGGACCCA reads 0.192.
